Results from paper PMC10229432.

Assays:
[1] = target: extracellular domain of EGFR (sEGFR) (UniProt P00533); assay: cross-linking; photocrosslinking in PBS, 10-μl reaction: 10 pmol sEGFR (or BSA) with 100 pmol 7D12 mutant (0-200 pmol in Fig. 2d), 5 min at 37 °C, 365-nm light for 10 min; PNGase F; denaturing SDS-PAGE, Coomassie; percent from band intensities
[2] = target: Epidermal Growth Factor Receptor (EGFR) expressed on the surface of A431 cells (human (endogenous in A431)) (UniProt P00533); assay: on-cell binding assay (cell ELISA, chemiluminescence); as a1, but after the 5 min at 37 °C the plate was irradiated with 365-nm light for 10 min (33 mW per cm2) before washing and fixing; Kd from a sigmoidal nonlinear fit

- percent crosslinked to EGFR [1]: 33%
- Kd [2]: 103 nM
Substance: 7D12-32pcY-109Bpa (VHH)
